B1: M0853 scFv (scFv)
scFv: QQQLVESGGGLVTPGTPLTLTCTVSGFSLSNYAMGWVRQAPGKGLEWIGTINDGGTAFYANWLKGRFTISRTSTTVDLKITSPTTEDTATYFCARAYGSNGDVYWGYFNLWGQGTLVTVSSGGGGSGGGGSGGGGSGGGGASELVMTQTASPVSAAVGGTVTINCQASQSISSRSLSWYQQKPGQPPKLLIYEASKLASGVPSRFSGSGSGTQFTLTISGVQADDAATYYCQQGYSSSNVDNFGGGTEVVVK
notes: Rabbit scFv from the biopanning screen
B2: M0850 scFv (scFv)
scFv: QEQLEESGGGLVTPGTPLTLTCTASGFSLSSYAMIWVRQAPGKGLEWIGTINDGGTAFYANWVKGRFTISRTSTTVDLKMTSPTTEDTATYFCARAYGSNGDVYWGYVNLWGQGTLVTVSSGGGGSGGGGSGGGGSGGGGASELVMTQTPASVSEPVGGTVTIKCQASQSIGSNLAWYQQKPGQPPKLLIYAAANLASGVSSRFKGSRSGTEYTLTISGVQAADAATYYCQQGYSSSNVANVFGGGTELEIL
notes: as for B1
B3: M0866 scFv (scFv)
scFv: QSVKESGGRLVTPGTPLTLTCTASGFTISSSAISWVRQAPGKGLEYIGIIRSGGTTDYASWAKGRFAISKTSTTVDLKITSPTTEDTATYFCARDPPYITSTYFDLWGQGTLVTVSSGGGGSGGGGSGGGGSGGGGASELVLTQPQSVSGSLGQTVSISCKRARDSVESYDVHWYQQHPGKTPTIVIYKDDQRPSGVPDRFSGSIDSTSNSASLTITGLLAEDEADYFCQSFDGDAVVFGGGTQLTVTG
notes: as for B1
B4: M0848 scFv (scFv)
scFv: QEQLVESGGGLVTPGTPLTLTCTVSGFSLSSYAMGWVRQAPGKGLEWIGTINDGGTAFYASWVKGRFTISRTSTTVDLRVTSPTTEDTATYFCARAYGSNGDVYWGYFNLWGQGTLVTVSSGGGGSGGGGSGGGGSGGGGASELDLTQTPASVEVAVGGTVTIKCQASQSIGSYLSWYQQKPGQRPKLLIFRASTLASGVSSRFKGSGSGTQFTLTISGVECADAATYYCQQGYSSTNLDNVFGGGTEVVVK
notes: as for B1
B5: M0857 scFv (scFv)
scFv: QQQLVESGGRLVTPGTPLTLTCTASGIDLNSNAMSWVRQGPGKGLEWIGDIWSGGYTDYASWAKGRFTISKTSTTVDLKMTSLTAADTATYFCARDRLAGDGVVDYDLWGQGTLVTISSGGGGSGGGGSGGGGSGGGGASELDMTQTPASVEVAVGGTVTIKCQASQNIYSNLAWYQQKPGQRPKLLIYGASTLASGVPSRFKGSGSGTEYTLTINGVQAADAATYYCQQGFSSSNVDNVFGGGTEVVVK
notes: as for B1
B6: M0862 scFv (scFv)
scFv: PEQLMESGGGLVTPGGVLTLTCTASGFSFSSYGVNWVRQAPGKGLEWIGFIFGDGTTYYANWAKGRFTISKTSTTVDLKMTSPTTEDTATYFCARDGYGGYDYIINLWGQGTLVTVSSGGGGSGGGGSGGGGSGGGGASAQVLTQTPASVSAAVGGTVSISCQSSQSVVNNNWLAWYQQKPGQPPKLLIYKASTLESGVPSRFKGSGSGTQFTLTISGVQADDAATYYCLGEFSCSSADCHAFGGGTELEIL
notes: as for B1
B7: M0865 scFv (scFv)
scFv: PAALMESGGRLVTPGTPLTLTCTVSGIDLSTFAMTWVRQAPGKGLEWLGIINTGGSAYYTSWAKGRFTISRTSTTVDLKITSPTTEDTATYFCARGDWSSATDLWGQGTLVTISSGGGGSGGGGSGGGGSGGGGASDPDMTQTPSSVSAAVGGTVTINCQASQSVYDNKVLAWYRQKPGQPPKLLIYKASTLASGVPSRFKGRGSGTQFTLTISGVQADDAATYYCLGEFSCSSADCHAFGGGTELEIL
notes: as for B1
B8: M0864 scFv (scFv)
scFv: QSVKESGGGLVTPGTPLTLTCTVSGFSLSTYAISWVRQAPGKGLEWIGFIDTVDSAYYASWAKGRFTISKTSSTTVDLKMTSPTTEDTATYFCAKLRYGDYGDYTLWGQGTLVTVSSGGGGSGGGGSGGGGSGGGGASELVMTQTPSPVSGAVGGTVTIKCQASQNIYSYLAWYQQKPGQPPKLLIYKASTLASGVPSRVKGSGSGTEYTLTISGVQAADAATYYCQCTYYDSNTFGGGTEVVVK
notes: as for B1
B9: M0855 scFv (scFv)
scFv: QQQLEESGGGLVTPGTPLTLTCTVSGIDLSSYAMGWVRQAPGKGLEWIGTINDGGSAFYASWVKGRFTISRTSTTVDLKITSPTAEDTATYFCAKTYGTNGDVYWGYFNLWGQGTLVTISSGGGGSGGGGSGGGGSGGGGASELVMTQTPASVSEPVGGTVTIKCQASQSIGSNLAWYQQKPGQPPKLLIYYESILASGVPSRFSGSGSGTEYTLTISGAQADDAATYYCQQGYSSSNIDNAFGGGTEVVVK
notes: as for B1
B10: M0856 scFv (scFv)
scFv: QQQLEESGGGLVTPGTPLTLTCTVSGIDLSSYAMGWVRQAPGKGLEWIGTINDGGSAFYASWVKGRFTISRTSTTVDLKITSPTAEDTATYFCAKTYGTNGDVYWGYFNLWGQGTLVTISSGGGGSGGGGSGGGGSGGGGASELVMTQTPASVSEPVGGTVTIKCQASQSIGSNLAWYQQKPGQPPKLLIYYESILASGVPSRFSGSGSGTEYTLTISGAQADDAATYYCQQGYSSSNILNAFGGGTEVVVK
notes: as for B1
B11: M0852 scFv (scFv)
scFv: QQQLEESGGGLVTPGTPLTLTCTVSGFSLSNYAMGWVRQAPGKGLEWIGTINDGGTAFYANWLKGRFTISRTSTTVDLKITSPTTEDTATYFCARAYGSNGDVYWGYFNLWGQGTLVTVSSGGGGSGGGGSGGGGSGGGGASELVMTQTASPVSAAVGGTVTINCQASQSISSRSLSWYQQKPGQPPKLLIYEASKLASGVPSRFSGSGSGTQFTLTISGVQADDAATYYCQQGYSSSNVDNVFGGGTEVVVK
notes: as for B1
B12: M0861 scFv (scFv)
scFv: QSVKESGGRLVTPGTPLTLTCTVSGFSLSNYAMSWVRQAPGKGLEYIGIVSSGGTTYYASWAKGRFTISKTSTTVDLKITSPTTEDTATYFCAKDLYYGPTTYSAFNLWGQGTLVTISSGGGGSGGGGSGGGGSGGGGASELVLTQPASVQVNLGQTVSLTCTADTLSRSYASWYQLKPGQAPVLLIYRDTSRPSGVPDRFSGSSSGNTATLTISGAQAGDEGDYVCATSDGSGSNFQLFGGGTQLTVTG
notes: as for B1
B13: M0863 scFv (scFv)
scFv: PEQLMESGGGLVTPGGVLTLTCTASGFSFSSYGVNWVRQAPGKGLEWIGFIFGDGTTYYANWAKGRFTISKTSTTVDLKMTSPTTEDTATYFCARDGYGGYDYIINLWGQGTLVTVSSGGGGSGGGGSGGGGSGGGGASAQVLTQTPASVSAAVGGTVSISCQSSQSVVNNNWLAWYQQKPGQPPKLLIYKASTLESGVPSRFKGSGSGTQFTLTISGVQADDAATYYCQGAYSGNIYYNAFGGGTEVVVK
notes: as for B1
B14: M0851 scFv (scFv)
scFv: QEQLEESGGGLVTPGTPLTLTCTASGFSLSSYAMIWVRQAPGKGLEWIGTINDGGTAFYASWVKGRFTISRTSTTVDLKITSPTTEDTATYFCARAYGSNGDVYWGYVNLWGQGTLVTISSGGGGSGGGGSGGGGSGGGGASELVMTQTPSSVSAAVGGTVTINCQASQNIGSVFAWYQQKPGQPPKLLIYKASSLASGVPSRFKGSGSGTQFTLTISGVEAADAATYYCQQGASSSNVDNIFGGGTEVVVK
notes: as for B1
B15: M0849 scFv (scFv)
scFv: QEQLEESGGGLVTPGGTLTLTCTVSGFSLSNYAMGWVRQAPGKGLEWIGTINDGGTAFYAKWLKGRFTISRTSTTVDLKITSPTTEDTATYFCARAYGSNGDVYWGYFNLWGQGTLVTISSGGGGSGGGGSGGGGSGGGGASELVMTQTPSSVSEPVGGTVTIKCQASQSIGSNLAWYQQRPGQPPKLLIYSASTLASGVSSRFKGSGSGTESTLTISGVQAADAATYYCQQGYSSSNVDNVFGGGTELEIL
notes: as for B1
B16: M0859 scFv (scFv)
scFv: QSVKESGGRLVTPGTPLTLTCTVSGFSLSNYAMSWVRQAPGKGLEYIGIVSSGGTTYYASWAKGRFTISKTSTTVDLKITSPTTEDTATYFCAKDLYYGPTTYSAFNLWGQGTLVTISSGGGGSGGGGSGGGGSGGGGASELVLTQPQSVSGSLGQTVSISCKRARDNIEDYYVHWYQQHPGKTPTIVIHKDDQRPSGVPDRFSGSIDSTSNSASLTITGLLAEDEADYFCQSFDNDASPVFGGGTQLTVTG
notes: as for B1
B17: M0858 scFv (scFv)
scFv: QSVEESGGRLVTPGTPLTLTCTVSGFSLSNYAMSWVRQAPGKGLEYIGIVSSGGTTYYASWAKGRFTISKTSTTVDLKITSPTTEDTATYFCAKDLYYGPTTYSAFNLWGQGTLVTVSSGGGGSGGGGSGGGGSGGGGASELVLTQPQSVSGSLGQTVSISCKRARNNIEDYYVHWYQQHPGRSPTIVIHKDDQRPSGVPDRFSGSIDSTSNSASLTITGLLAEDEADYFCQSFDNNANPVFGGGTQLTVTG
notes: as for B1
B18: M0860 scFv (scFv)
scFv: QSVKESGGRLVTPGTPLTLTCTVSGFSLSNYAMSWVRQAPGKGLEYIGIVSSGGTTYYASWAKGRFTISKTSTTVDLKITSPTTEDTATYFCAKDLYYGPTTYSAFNLWGQGTLVTISSGGGGSGGGGSGGGGSGGGGASELVLTQPQSVSGSLGQTVSISCKRARDNIEDYYVHWYQQYPGKTPTIVIYKDDQRPSGVPDRFSGSIDSTSNSASLTITGLLAEDEADYFCQSFDNNANVVFGGGTQLTVTG
notes: as for B1
B19: M0854 scFv (scFv)
scFv: QSVKESWGRLVTPGGSLTLTCTVSGIDLNNYAMGWVRQAPGKGLEWIGTINNDGATYYPSWARGRFTISKTSTTVDLKITSPTTEDTATYFCARTYGSNGDVYWGYFNLWGQGTLVTVSSGGGGSGGGGSGGGGSGGGGASALELTQTPASVEVAVGGTVTINCQASQSIGGALNWYQQKSGQPPKLLIYLASTLASGVSSRFKGSGSGTQFTLTISGVEAADAATYYCQQGYSASNIDNAFGGGTEVVVK
notes: as for B1

Target: T1, HLA-A2/MAGE-A4 complex (HLA-A*02:01 extracellular domain, human β2m, MAGE-A4 peptide 230-239) (human, UniProt P04439 25-299 at identity 0.94); P61769 21-119)
T1 construct: also called MAGE-A4/HLA-A2 complex; pMHC
Experiment: phage display biopanning and screening of the lambda and optimized kappa libraries

Binder	binding result
B1	binds
B2	binds
B3	binds
B4	binds
B5	binds
B6	binds
B7	binds
B8	binds
B9	binds
B10	binds
B11	binds
B12	binds
B13	binds
B14	binds
B15	binds
B16	binds
B17	binds
B18	binds
B19	binds

— US20220340894A1 (CDR LIFE, published 2022)
